Experimental data: US20210380669A1 (SCHOLAR ROCK, published 2021)

T1: recombinant, soluble human RGMc fused to an Fc (human, UniProt Q6ZVN8 36-400, limits assumed)
T1 sequence: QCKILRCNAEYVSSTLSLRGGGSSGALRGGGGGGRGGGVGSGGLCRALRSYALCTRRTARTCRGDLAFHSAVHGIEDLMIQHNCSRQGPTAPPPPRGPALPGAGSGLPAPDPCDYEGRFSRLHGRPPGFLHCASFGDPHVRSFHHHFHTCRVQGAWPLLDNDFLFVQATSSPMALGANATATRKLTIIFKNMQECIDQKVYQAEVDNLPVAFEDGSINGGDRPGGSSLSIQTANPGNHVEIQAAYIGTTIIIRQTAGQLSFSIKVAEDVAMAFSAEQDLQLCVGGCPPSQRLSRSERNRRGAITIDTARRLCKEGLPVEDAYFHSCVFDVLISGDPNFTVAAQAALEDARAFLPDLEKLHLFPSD

T2: histidine tagged hRGMc (human, UniProt Q6ZVN8 36-400)
T2 construct: also called human RGMc-his; not shown: histidine tag
T2 sequence: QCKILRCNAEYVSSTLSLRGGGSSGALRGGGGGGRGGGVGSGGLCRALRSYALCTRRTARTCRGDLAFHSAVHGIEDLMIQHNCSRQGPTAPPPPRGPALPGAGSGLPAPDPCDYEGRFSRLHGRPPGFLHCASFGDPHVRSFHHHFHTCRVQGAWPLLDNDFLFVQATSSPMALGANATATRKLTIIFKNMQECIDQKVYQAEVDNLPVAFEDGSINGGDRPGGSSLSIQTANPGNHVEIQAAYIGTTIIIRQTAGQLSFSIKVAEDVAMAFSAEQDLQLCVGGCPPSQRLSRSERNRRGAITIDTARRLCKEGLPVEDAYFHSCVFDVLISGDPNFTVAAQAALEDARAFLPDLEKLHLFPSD

T3: histidine tagged hRGMb (human, UniProt Q6NW40 46-413)
T3 construct: not shown: histidine tag
T3 sequence: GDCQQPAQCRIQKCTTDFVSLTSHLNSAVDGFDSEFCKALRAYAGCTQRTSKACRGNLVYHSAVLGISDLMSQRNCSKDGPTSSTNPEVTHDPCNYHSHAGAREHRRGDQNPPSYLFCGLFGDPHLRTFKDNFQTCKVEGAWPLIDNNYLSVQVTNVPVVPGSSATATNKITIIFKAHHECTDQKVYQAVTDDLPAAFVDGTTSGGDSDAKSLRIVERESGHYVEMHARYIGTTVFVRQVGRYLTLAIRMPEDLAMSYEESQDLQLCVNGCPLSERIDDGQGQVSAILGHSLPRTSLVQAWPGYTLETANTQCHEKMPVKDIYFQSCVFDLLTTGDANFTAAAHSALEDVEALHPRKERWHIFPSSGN

T4: histidine tagged hRGMa (human, UniProt Q96B86 46-425, limits assumed)
T4 construct: also called RGMa-his; not shown: histidine tag
T4 sequence: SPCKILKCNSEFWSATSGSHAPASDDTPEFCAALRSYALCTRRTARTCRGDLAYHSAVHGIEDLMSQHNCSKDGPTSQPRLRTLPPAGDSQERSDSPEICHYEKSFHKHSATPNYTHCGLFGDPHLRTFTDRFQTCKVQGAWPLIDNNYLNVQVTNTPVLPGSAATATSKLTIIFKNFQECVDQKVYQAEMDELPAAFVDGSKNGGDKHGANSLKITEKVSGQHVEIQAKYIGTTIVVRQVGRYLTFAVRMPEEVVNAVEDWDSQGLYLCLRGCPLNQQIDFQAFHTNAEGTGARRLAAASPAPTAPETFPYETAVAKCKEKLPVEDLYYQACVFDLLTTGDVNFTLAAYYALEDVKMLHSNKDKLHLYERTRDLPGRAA


Legend:
[1] = target: T1, recombinant, soluble human RGMc fused …; assay: cell-based or functional assay
[2] = target: T2, histidine tagged hRGMc; assay: MSD-SET, full-length antibody against human RGMc-his
Description: The titration was then added to a pre-coated plate with a capture antibody (pre-labeled with an NHS-sulfotag) that depletes any free antigen from solution. After a 150 second incubation, the plate was washed 3 times and an SA-sulfotag reagent was added and incubated for 3 min. After additional washes the plate was read on a MesoQuickPlex SQ120.
A similar MSD-SET assay was performed with the full-length antibodies against the human RGMc-his antigen to determine binding affinity (KD)).

[3] = target: T3, histidine tagged hRGMb; assay: Octet (BLI), antibody on AHC biosensor, his-tagged hRGMb in solution (concentrations from paragraph 460)
Description: (§1) Antibodies that are selective for RGMc were generated using known techniques as describe herein. RGMc specificity over RGMa and RGMb was verified using an in vitro binding assay (i.e., Octet®). […] After loading, a baseline reading was obtained by placing the tips into 1× Kinetics Buffer before calculating the on rate, or association, of the antibodies by presenting them to histidine tagged hRGMc, hRGMa, or hRGMb, at varying concentrations (900 nM, 300 nM, 100 nM, and 33 nM). After reaching binding saturation, a dissociation step was performed to calculate the off rate by moving the tips back into 1× Kinetics Buffer. The rate of binding and dissociation can then be used to calculate the KD, or binding affinity of each antibody to the main target (RGMc) while ensuring no cross binding to RGM family members (RGMa and RGMb).

[4] = target: T4, histidine tagged hRGMa; assay: Octet (BLI), antibody on AHC biosensor, his-tagged hRGMa in solution (concentrations from paragraph 460)
Description: as §1

[5] = target: T1, recombinant, soluble human RGMc fused …; assay: cell-based or functional assay; remark: listed apart in the source

Row | EC50 (ug/mL), BMP activity assay [1] [µg/mL] | Kd [2] [nM] | binding result [3] | binding result [4] | EC50 in the BRE reporter assay (BMP6 reporter activity, luciferase RLU) [5] [nM] | Binder
1 | 3.45 | 0.024 |  |  |  | SR-RC-AB9 (antibody, V domains shown, Tested as a full-length antibody) VH: QVQLVQSGAEVKKPGSSVKVSCKASGGTFSSYSIQWVRQAPGQGLEWMGGIIPIFGVASYAQKFQGRVTITADESTSTAYMELSSLRSEDTAVYYCARGAIAATYGLGMDVWGQGTTVTVSS VL: not shown
2 | 3.63 | 0.039 |  |  |  | SR-RC-AB8 (antibody, human IgG4, V domains shown) VH: QVQLVQSGAEVKKPGSSVKVSCKASGGTFRSYSISWVRQAPGQGLEWMGGIIPIFGVANYAQKFQGRVTITADESTSTAYMELSSLRSEDTAVYYCARGAYEATYGLGMDVWGQGTTVTVSS VL: not shown
3 | 3.87 | 0.021 |  |  |  | SR-RC-AB7 (antibody, V domains shown, Tested as a full-length antibody) VH: QVQLVQSGAEVKKPGSSVRVSCKASGGTFSSYAIQWVRQAPGQGLEWMGGIIPIFGVASYAQKFQGRVTITADESTSTAYMELSSLRSEDTAVYYCARGAIVATYGLGMDVWGQGTTVTVSS VL: not shown
4 | 4.83 | 4.3 | no binding (tested: 900 nM) | no binding (tested: 900 nM) | 6.83 | SR-RC-AB3 (antibody, V domains shown, Tested as a full-length antibody, captured by anti-human IgG Fc sensors; also called parental antibody) VH: QVQLVQSGAEVKKPGSSVKVSCKASGGTFSSYAISWVRQAPGQGLEWMGGIIPIFGTANYAQKFQGRVTITADESTSTAYMELSSLRSEDTAVYYCARGAIAATYGLGMDVWGQGTTVTVSS VL: not shown
